Where no end group is shown, it is not given here.
What was measured:
Type in all cases: physicochemical
[1] = Particle size of self-assembled nanoparticles (TEM); details: for Particle Size: particles self-assembled from the conjugate, Table 1
Experimental: Lyophilized peptide-polymer conjugates were dissolved in phosphate buffer (pH=8) at a concentration of 10 mg/ml (˜1.5 mM). Upon sonication for 30 s, solutions were diluted to 1 mg/ml (0.15 mM) or 0.1 mg/ml in phosphate buffer (pH=8). 5 μl of the diluted peptide solution were applied to a discharged holey carbon-coated copper grid (Ted Pella Cu 400 mesh 01824) for 4 minutes before absorbing off excess solution using filter paper (Whatman filter paper 1). The sample on the grid was negatively stained with a 5 μl 2% (w/v) phosphotungstic acid (adjusted to pH=3.3 with 1 M NaOH) for 2 minutes. Excess stain solution was wicked off. After complete drying, grids were examined by TEM at 120 kV (Philips/FEI Tecnai 12).
Lyophilized peptide powder was dissolved at 1 mg/ml in 25 mM phosphate buffer at pH 7.4. 5 μl of peptide solution was dropped on a discharged holey carbon coated grid (Ted Pella 01824). After removing excess peptide solution, 5 μl of phosphotungstic acid (2 wt %, pH=3.3) solution was then applied for 2 minutes. Samples were dried in air and examined by a FEI Tecnai 12 transmission electron microscope at 120 kV.

[2] = Circular dichroism (CD), peptide helicity; details: CD spectra, same conditions, FIG. 31
Experimental: Temperature dependent CD measurements were made on a Jasco J810 spectropolarimeter. CD spectra were collected from 260 to 190 nm at 0.2 nm intervals, a rate of a 100 nm/min, a response time of 4 s, and a bandwidth of 1 nm. Temperature melt curves were measured using ˜200 μM solutions. The ellipticity was monitored at 222 nm as the temperature increased from 5° to 95° C. in 5° C. increments at a rate of 1° C./min, with a 1 min equilibration time at each temperature before the measurement was taken. One hundred percent helicity was estimated using the formula [θ]222=40,000[…][1−(2.5/n)].

[3] = Differential scanning calorimetry (DSC) of micelles; details: heating from 5° C. to 85° C.; solutions incubated at 20° C. for 16 hrs; FIG. 21A
Experimental: DSC was performed on a VP-MicroCal calorimeter (GE). ˜600 μl of sample and buffer were loaded into two parallel stainless steel cells that were sealed tightly under the pressure of ˜27 psi to prevent water evaporation during the heating cycle. The temperature was increased from 5° to 85° C. at a rate of 1° C./min, with a 15 min equilibration time at 5° C. DSC thermograms were obtained after concentration normalization and baseline correction using the Origin software provided by the MicroCal.

Conjugate 8: dC16 lipid, heme-binding 4-helix peptide BB (SEQ ID NO: 2), PEG2K (GGGEIWKLHEEFLCKFEELLKLHEERLKKM; also: dC16 lipid, place not given here, PEG2K, place not given here)
particle/micelle diameter ([1]; TEM for conjugate 15): ~12 nm | Particle Size [1]: 10-15 nm

Conjugate 14: dC16 lipid, random coil control peptide SR (SEQ ID NO: 4), PEG2K (EGKAGEKAGAALKCGVQELEKGAEAGEGGW; also: dC16 lipid, place not given here, PEG2K, place not given here)
helical content [2]: less than 5% | Particle Size [1]: 10-15 nm | DSC melting temperature / endothermic peak centre [3]: 42 °C
